Drawing on patent US20080292640A1, this text covers IC50, inhibition of IL-1β induced production of IL-8 in human whole blood (100 pM rhIL-1β) for 1 substance.

The target in the test is IL-1 receptor (human) (UniProt P14778). In words: cell-based or functional assay.
Sequence of UniProt P14778 (P14778 18-569): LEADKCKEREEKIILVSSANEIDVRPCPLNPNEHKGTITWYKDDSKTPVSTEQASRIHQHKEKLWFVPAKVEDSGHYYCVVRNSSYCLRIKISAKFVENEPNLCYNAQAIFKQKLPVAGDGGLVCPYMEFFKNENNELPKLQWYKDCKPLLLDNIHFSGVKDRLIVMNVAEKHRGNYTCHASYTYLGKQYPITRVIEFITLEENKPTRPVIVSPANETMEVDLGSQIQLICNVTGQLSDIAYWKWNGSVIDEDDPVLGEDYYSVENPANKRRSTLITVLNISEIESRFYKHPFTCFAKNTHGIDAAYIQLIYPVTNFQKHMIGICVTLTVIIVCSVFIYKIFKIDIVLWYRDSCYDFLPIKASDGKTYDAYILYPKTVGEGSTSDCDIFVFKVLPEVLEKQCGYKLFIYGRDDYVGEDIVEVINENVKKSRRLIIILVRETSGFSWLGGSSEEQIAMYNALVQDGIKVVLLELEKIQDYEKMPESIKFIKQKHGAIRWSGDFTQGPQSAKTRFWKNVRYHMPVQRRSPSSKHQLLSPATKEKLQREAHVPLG

For “Kineret® (anakinra) (from UniProt P18510 26-177) (ligand)”, the IC50, inhibition of IL-1β induced production of IL-8 in human whole blood (100 pM rhIL-1β) is 53.4 pM.
